{"source": "patent US20220281936", "proteins": {"B1": {"name": "Recombinant mouse MMP9 (protein)", "chain": "FQTFKGLKWDHHNITYWIQNYSEDLPRDMIDDAFARAFAVWGEVAPLTFTRVYGPEADIVIQFGVAEHGDGYPFDGKDGLLAHAFPPGAGVQGDAHFDDDELWSLGKGVVIPTYYGNSNGAPCHFPFTFEGRSYSACTTDGRNDGTPWCSTTADYDKDGKFGFCPSERLYTEHGNGEGKPCVFPFIFEGRSYSACTTKGRSDGYRWCATTANYDQDKLYGFCPTRVDATVVGGNSAGELCVFPFVFLGKQYSSCTSDGRRDGRLWCATTSNFDTDKKWGFCPDQGYSLFLVAAHEFGHALGLDHSSVPEALMYPLYSYLEGFPLNKDDIDGIQYLYGRGSKPDPRPPATTTTEPQPTAPPTMCPTIPPTAYPTVGPTVGPTGAPSPGPTSSPSPGPTGAPSPGPTAPPTAGSSEASTESLSPADNPCNVDVFDAIAEIQGALHFFKDGWYWKFLNHRGSPLQGPFLTARTWPALPATLDSAFEDPQTKRVFFFSGRQMWVYTGKTVLGPRSLDKLGLGPEVTHVSGLLPRRLGKALLFSKGRVWRFDLKSQKVDPQSVIRVDKEFSGVPWNSHDIFQYQDKAYFCHGKFFWRVSFQNEVNKVDHEVNQVDDVGYVTYDLLQCP"}}, "key": {"Mouse IL12 (unmodified)": {"molecular_target": "T1, Mouse IL12 (unmodified)", "T1 chain 1": "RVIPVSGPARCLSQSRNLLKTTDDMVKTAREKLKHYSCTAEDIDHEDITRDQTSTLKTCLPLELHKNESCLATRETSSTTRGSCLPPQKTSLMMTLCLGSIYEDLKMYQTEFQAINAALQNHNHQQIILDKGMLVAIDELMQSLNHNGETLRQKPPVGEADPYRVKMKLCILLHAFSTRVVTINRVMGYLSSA", "T1 chain 2": "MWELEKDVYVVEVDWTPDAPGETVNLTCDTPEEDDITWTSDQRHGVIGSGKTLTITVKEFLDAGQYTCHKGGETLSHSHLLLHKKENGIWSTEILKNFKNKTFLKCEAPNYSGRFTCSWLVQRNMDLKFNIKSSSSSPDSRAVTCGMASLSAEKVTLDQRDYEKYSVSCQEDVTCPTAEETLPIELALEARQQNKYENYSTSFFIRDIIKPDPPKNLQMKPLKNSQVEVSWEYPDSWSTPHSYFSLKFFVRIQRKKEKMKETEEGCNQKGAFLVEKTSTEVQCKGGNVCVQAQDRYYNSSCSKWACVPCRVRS"}}}
{"protein": "B1", "values": [{"measurement": "proteolytic cleavage, SDS-PAGE", "setting": "Mouse IL12 (unmodified)", "result": "These enzymes had no effect on IL12 itself"}, {"measurement": "proteolytic cleavage, SDS-PAGE (30 min, 37 C)", "setting": "IL12Rβ1-VP-IL12", "result": "MMP2 and MMP9 fully cleaved the IL12Rβ1 portion, yielding IL12 heterodimer (-60 kDa)"}]}
